One may read the Kd as the concentration at which binding is half-saturated.

In data set [1] the target is T1, UmuDAb (Acinetobacter baumannii ATCC 17978 JH, UniProt A0A0D5YJU0 1-203).
T1 sequence: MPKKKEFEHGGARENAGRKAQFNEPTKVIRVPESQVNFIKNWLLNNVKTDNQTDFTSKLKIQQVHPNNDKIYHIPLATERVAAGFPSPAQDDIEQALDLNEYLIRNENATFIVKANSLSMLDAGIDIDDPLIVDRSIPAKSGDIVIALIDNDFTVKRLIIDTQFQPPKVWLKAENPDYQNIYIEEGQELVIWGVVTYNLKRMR
As to the kind of experiment: competition; 100x competitor; also fails vs L2-labeled probe (Fig S3); […] (10x = 100 mM Tris, 500 mM KCl, 10 mM DTT, […]. Conditions: protein: recombinant, chain copies: 2, blunt.

Data set [2] has as its target UmuDAb HTH2 (Acinetobacter baumannii ATCC 17978 JH, UniProt A0A0D5YJU0 1-203, K40P;N41P). As to the kind of experiment: EMSA; Hill 10.8; 78% bound; […] (10x = 100 mM Tris, 500 mM KCl, 10 mM DTT, […]. Conditions: protein: recombinant; chain copies: 2; label: 5' IRDye700 on both strands; blunt.
For data set [3], the target named is UmuDAb R201X (Acinetobacter baumannii ATCC 17978 JH, UniProt A0A0D5YJU0 1-200). As to the kind of experiment: EMSA; 60-70% bound above 1 uM; […] (10x = 100 mM Tris, 500 mM KCl, 10 mM DTT, […]. Conditions: protein: recombinant; chain copies: 2; label: 5' IRDye700 on both strands; blunt. On the technique in general: In EMSA bound probe runs differently from free probe, usually more slowly.

Data set [4] deals with UmuDAb HTH1 (Acinetobacter baumannii ATCC 17978 JH, UniProt A0A0D5YJU0 1-203, E24K). As to the kind of experiment: EMSA; Hill 6.1; 94% bound; […] (10x = 100 mM Tris, 500 mM KCl, 10 mM DTT, […]. To be noted: protein: recombinant; chain copies: 2; label: 5' IRDye700 on both strands; blunt.
For data set [5], the target named is T1, UmuDAb. The data set can be described thus: EMSA; Hill 4.9; EMSA: LI-COR Odyssey binding buffer (10x = 100 mM Tris, 500 mM KCl, 10 mM DTT, pH 7.5), 25 mM DTT, 1 ug/uL poly(dI-dC), 200 fmol probe per 20 uL, 20 min at room temperature; 5% TBE gel run at 4 C. Conditions: protein: recombinant; chain copies: 2; label: 5' IRDye700 on both strands; blunt.
Data set [6] addresses UmuDAb G124D (Acinetobacter baumannii ATCC 17978 JH, UniProt A0A0D5YJU0 1-203, G124D). The data set can be described thus: EMSA; Bmax < 0.90; […] (10x = 100 mM Tris, 500 mM KCl, 10 mM DTT, […]. Conditions: protein: recombinant; chain copies: 2; label: 5' IRDye700 on both strands; blunt.
Data set [7] has as its target UmuDAb N100D (Acinetobacter baumannii ATCC 17978 JH, UniProt A0A0D5YJU0 1-203, N100D). Described as above. Conditions: protein: recombinant; chain copies: 2; label: 5' IRDye700 on both strands; blunt.
Data set [8] has as its target UmuDAb W192X (Acinetobacter baumannii ATCC 17978 JH, UniProt A0A0D5YJU0 1-191). The data set can be described thus: EMSA; Hill 6.1; 60-70% bound above 1 uM; […] (10x = 100 mM Tris, 500 mM KCl, 10 mM DTT, […]. Conditions: protein: recombinant; chain copies: 2; label: 5' IRDye700 on both strands; blunt.
Data set [9] has as its target UmuDAb A83Y (Acinetobacter baumannii ATCC 17978 JH, UniProt A0A0D5YJU0 1-203, A83Y). As to the kind of experiment: EMSA; Hill 4.65; legend gives 69 nM; […] (10x = 100 mM Tris, 500 mM KCl, 10 mM DTT, […]. Conditions: protein: recombinant; chain copies: 2; label: 5' IRDye700 on both strands; blunt.
The target in data set [10] is T1, UmuDAb. The data set can be described thus: competition; 100x competitor; not different from WT; […] (10x = 100 mM Tris, 500 mM KCl, 10 mM DTT, […]. To be noted: protein: recombinant; chain copies: 2; blunt.
Data set [11] addresses T1, UmuDAb. The data set can be described thus: competition; 100x competitor; […] (10x = 100 mM Tris, 500 mM KCl, 10 mM DTT, […]. Conditions: protein: recombinant; chain copies: 2; blunt.
Data set [12] addresses T1, UmuDAb. The data set can be described thus: EMSA; no higher MW second band; […] (10x = 100 mM Tris, 500 mM KCl, 10 mM DTT, […]. To be noted: protein: recombinant; chain copies: 2; blunt.

B1: L2C31-2 (dsDNA)
DNA 1: TCGTCAACCCAGAAATTCAACTTTTTCAAGTTACATT
DNA 2: AATGTAACTTGAAAAAGTTGAATTTCTGGGTTGACGA
Regarding B1, the binding result in data set [1] is reported as “no binding”.

B2: L2C34-5 (dsDNA)
DNA 1: TCGTCAACCCAGAAATGTAGATTTTTCAAGTTACATT
DNA 2: AATGTAACTTGAAAAAATTACATTTCTGGGTTGACGA
As to B2, the binding result in data set [1] (2 mismatches in core as printed) is given as “no binding”.

B3: WT 37 bp UmuDAb operator probe (dsDNA)
DNA 1: TCGTCAACTTGAAAATGTAACTTTTTCAAGTTACATT
DNA 2: AATGTAACTTGAAAAAGTTACATTTTCAAGTTGACGA
For B3, the dissociation constant (Kd) in [2] stood at 114 nM; in [3], 353 nM; in [4] it was 99 nM; in data set [5], 38.9 nM; in data set [6], 390 nM; in data set [7] it was 306 nM. The Kd in [8] is 540 nM; in data set [9], 70 nM.

B4: R2 (dsDNA)
DNA 1: TCGTCAACTTGAAAATGTAACTTTTCTGGGTTACATT
DNA 2: AATGTAACCCAGAAAAGTTACATTTTCAAGTTGACGA
Turning to B4, in [10], the binding result is reported as “binds”.

B5: C3 (dsDNA)
DNA 1: TCGTCAACTTGAAAATTCAGATTTTTCAAGTTACATT
DNA 2: AATGTAACTTGAAAAATCTGAATTTTCAAGTTGACGA
As to B5, the binding result in data set [11] is “no binding”.

B6: L1 (dsDNA)
DNA 1: TCGTCAACTTGAAAATGTAACTTTTTTGAGTTACATT
DNA 2: AATGTAACTCAAAAAAGTTACATTTTCAAGTTGACGA
For the molecule B6, the binding result in data set [10] is on record as “binds”.

B7: R1 (dsDNA)
DNA 1: TCGTCAACTCAAAAATGTAACTTTTTCAAGTTACATT
DNA 2: AATGTAACTTGAAAAAGTTACATTTTTGAGTTGACGA
In the case of B7, in data set [10], the binding result is given as “binds”.

B8: L2 labeled probe (dsDNA)
DNA 1: TCGTCAACCCAGAAATGTAACTTTTTCAAGTTACATT
DNA 2: AATGTAACTTGAAAAAGTTACATTTCTGGGTTGACGA
In the case of B8, the binding signal in data set [12] was ~0.75 Kd ratio to WT probe.

B9: LR3 (dsDNA)
DNA 1: TCGTCAACCCAGAAATGTAACTTTTCTGGGTTACATT
DNA 2: AATGTAACCCAGAAAAGTTACATTTCTGGGTTGACGA
For the molecule B9, the binding result in data set [11] is on record as “no binding”.

The values above are taken from publication PMC11332147, “Repression of Acinetobacter baumannii DNA damage response requires DdrR-assisted binding of UmuDAb dimers to atypical SOS box”.
